pKd data for four molecules are collected here from publication PMC9482650, “Quantitative fragmentomics allow affinity mapping of interactomes” (Nature Communications, 2022).

Some targets named below: DLG1_2, Q12959; DLG2_2, Q15700; DLG2_3, Q15700; HTRA1, Q92743; IL16_3, Q14005; MAGI2_5, Q86UL8; MAST1, Q9Y2H9; NOS1, P29475; PICK1, Q9NRD5; PTPN3, P26045; TJP1_2, Q07157.
What all share (assay): holdup assay
Common to all, as to set-up: key: below the threshold = too weak to quantify, mostly under pKd 3.1 to 4
Common to all, as to settings: plain residues with an end cap or a label only (N-terminal biotin on a linker: ado-ado)

In the next experiment the target is T1, APBA2_2, Q99767.
T1 sequence (Q99767 654-744, limits assumed, looked up): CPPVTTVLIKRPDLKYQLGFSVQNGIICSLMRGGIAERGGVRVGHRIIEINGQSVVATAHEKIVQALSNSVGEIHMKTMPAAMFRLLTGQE

The next experiment concerns the target T2, ARHGAP21, Q5T5U3.
T2 sequence (Q5T5U3 45-169, limits assumed, looked up): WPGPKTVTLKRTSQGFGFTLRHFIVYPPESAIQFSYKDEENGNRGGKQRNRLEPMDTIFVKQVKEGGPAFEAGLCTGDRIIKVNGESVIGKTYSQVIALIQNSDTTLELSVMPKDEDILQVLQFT

Another experiment has as its target T3, DFNB31_2, Q9P202.
T3 sequence (Q9P202 274-371, limits assumed, looked up): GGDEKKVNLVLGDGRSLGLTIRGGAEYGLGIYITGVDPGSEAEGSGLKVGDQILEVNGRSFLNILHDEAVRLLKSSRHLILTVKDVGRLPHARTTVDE

For a further experiment, the target named is T4, DLG3_1, Q92796.
T4 sequence (Q92796 125-227, limits assumed, looked up): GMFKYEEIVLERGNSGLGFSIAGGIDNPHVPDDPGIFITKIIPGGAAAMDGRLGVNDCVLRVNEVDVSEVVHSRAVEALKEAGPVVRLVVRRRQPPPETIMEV

Another experiment addresses T5, LIN7A, O14910.
T5 sequence (O14910 103-200, limits assumed, looked up): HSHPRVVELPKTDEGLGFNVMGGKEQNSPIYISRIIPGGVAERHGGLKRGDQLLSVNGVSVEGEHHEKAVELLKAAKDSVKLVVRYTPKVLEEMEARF

Another experiment deals with T6, LRRC7, Q96NW7.
T6 sequence (Q96NW7 1440-1537, limits assumed, looked up): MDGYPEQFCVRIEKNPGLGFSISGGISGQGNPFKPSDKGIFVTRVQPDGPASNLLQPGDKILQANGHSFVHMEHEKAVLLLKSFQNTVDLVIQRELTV

Another experiment concerns the target T7, MPDZ_10, O75970.
T7 sequence (O75970 1624-1722, limits assumed, looked up): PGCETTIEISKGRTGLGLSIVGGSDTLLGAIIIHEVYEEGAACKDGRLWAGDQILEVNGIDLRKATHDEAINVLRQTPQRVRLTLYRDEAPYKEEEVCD

A further experiment concerns the target T8, MPDZ_12, O75970.
T8 sequence (O75970 1857-1958, limits assumed, looked up): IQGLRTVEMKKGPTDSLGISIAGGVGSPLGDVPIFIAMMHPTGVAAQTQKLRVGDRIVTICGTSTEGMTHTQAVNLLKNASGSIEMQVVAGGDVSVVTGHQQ

A further experiment addresses T9, MPDZ_5, O75970.
T9 sequence (O75970 695-796, limits assumed, looked up): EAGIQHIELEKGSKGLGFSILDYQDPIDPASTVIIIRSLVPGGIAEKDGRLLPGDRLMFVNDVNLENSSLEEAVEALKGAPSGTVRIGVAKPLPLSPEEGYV

The target in another experiment is T10, NHERF3_1, Q5T2W1.
T10 sequence (Q5T2W1 4-100, limits assumed, looked up): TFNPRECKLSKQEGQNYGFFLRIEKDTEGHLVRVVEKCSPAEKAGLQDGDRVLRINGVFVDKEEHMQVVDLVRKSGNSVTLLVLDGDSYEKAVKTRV

The next experiment concerns the target T11, NHERF3_4, Q5T2W1.
T11 sequence (Q5T2W1 373-468, limits assumed, looked up): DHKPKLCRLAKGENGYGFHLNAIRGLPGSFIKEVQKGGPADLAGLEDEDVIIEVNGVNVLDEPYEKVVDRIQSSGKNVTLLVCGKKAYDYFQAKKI

The target in the next experiment is T12, PDZRN3_1, Q9UPQ7.
T12 sequence (Q9UPQ7 244-349, limits assumed, looked up): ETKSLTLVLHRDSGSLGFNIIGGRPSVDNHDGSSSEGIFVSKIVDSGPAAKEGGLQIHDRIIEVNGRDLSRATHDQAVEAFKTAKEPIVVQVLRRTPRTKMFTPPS

The target in a further experiment is T13, TX1BP3, O14907.
T13 sequence (O14907 10-122, limits assumed, looked up): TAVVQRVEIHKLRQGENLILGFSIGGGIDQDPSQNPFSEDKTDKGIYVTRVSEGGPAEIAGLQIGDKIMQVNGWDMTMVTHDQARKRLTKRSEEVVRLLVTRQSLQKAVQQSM

Sequence of DLG1_2, Q12959 (Q12959 314-412): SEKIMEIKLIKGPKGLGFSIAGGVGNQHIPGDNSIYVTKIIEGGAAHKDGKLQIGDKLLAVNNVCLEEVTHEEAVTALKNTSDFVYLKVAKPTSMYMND
Sequence of PICK1, Q9NRD5 (Q9NRD5 17-115): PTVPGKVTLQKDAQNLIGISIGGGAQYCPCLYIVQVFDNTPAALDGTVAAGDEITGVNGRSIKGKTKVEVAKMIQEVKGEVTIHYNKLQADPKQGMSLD
Sequence of MAST1, Q9Y2H9 (Q9Y2H9 962-1065): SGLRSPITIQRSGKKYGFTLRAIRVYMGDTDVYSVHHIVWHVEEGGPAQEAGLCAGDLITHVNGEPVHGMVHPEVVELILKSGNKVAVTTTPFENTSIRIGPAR
Sequence of TJP1_2, Q07157 (Q07157 181-274): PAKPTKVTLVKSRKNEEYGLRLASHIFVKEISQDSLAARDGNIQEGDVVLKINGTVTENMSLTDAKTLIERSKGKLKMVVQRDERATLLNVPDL
Sequence of PTPN3, P26045 (P26045 505-587): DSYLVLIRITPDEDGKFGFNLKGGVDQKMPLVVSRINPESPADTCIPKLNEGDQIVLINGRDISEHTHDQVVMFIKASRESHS
Sequence of MAGI2_5, Q86UL8 (Q86UL8 915-1017): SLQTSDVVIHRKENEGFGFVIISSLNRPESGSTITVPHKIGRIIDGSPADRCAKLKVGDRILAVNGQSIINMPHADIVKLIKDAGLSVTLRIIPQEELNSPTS
Sequence of HTRA1, Q92743 (Q92743 360-477): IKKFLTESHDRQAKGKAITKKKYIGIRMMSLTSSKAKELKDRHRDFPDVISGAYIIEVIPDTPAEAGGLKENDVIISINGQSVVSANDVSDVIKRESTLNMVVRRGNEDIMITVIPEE
Sequence of IL16_3, Q14005 (Q14005 1107-1207): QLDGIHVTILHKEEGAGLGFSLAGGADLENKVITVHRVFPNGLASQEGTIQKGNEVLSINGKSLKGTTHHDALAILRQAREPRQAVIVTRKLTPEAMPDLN
Sequence of NOS1, P29475 (P29475 9-101): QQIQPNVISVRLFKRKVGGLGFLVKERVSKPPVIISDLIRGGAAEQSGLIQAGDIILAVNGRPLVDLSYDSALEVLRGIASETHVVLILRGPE

As for AKPSRISTVV [IQSEC2, Q5JU85], the pKd result is “below the threshold” with APBA2_2, Q99767; “below the threshold” with ARHGAP21, Q5T5U3; “below the threshold” with DFNB31_2, Q9P202; 5.52 with DLG1_2, Q12959; 5.21 with DLG2_2, Q15700; 4.34 in the experiment with DLG2_3, Q15700. The negative logarithm of the Kd (pKd) was 4.3 with DLG3_1, Q92796; 4.5 with HTRA1, Q92743; “below the threshold” in the experiment with IL16_3, Q14005; “below the threshold” with LIN7A, O14910; “below the threshold” with LRRC7, Q96NW7; 4.44 in the experiment with MAGI2_5, Q86UL8. The negative logarithm of the Kd (pKd) in the experiment with MAST1, Q9Y2H9 was 4.28; in the experiment with MPDZ_10, O75970 it was 3.57; in the experiment with MPDZ_12, O75970, 3.49; in the experiment with MPDZ_5, O75970, “below the threshold”; with NHERF3_1, Q5T2W1, “below the threshold”; in the experiment with NHERF3_4, Q5T2W1, 3.73. In addition, the pKd in the experiment with NOS1, P29475 was 3.65; with PDZRN3_1, Q9UPQ7 it was “below the threshold”; with PICK1, Q9NRD5 it was 4.14; in the experiment with PTPN3, P26045 it was 4.21; with TJP1_2, Q07157, “below the threshold”; with TX1BP3, O14907 it was 3.76.

For HLRARKSEWV [GJD4, Q96KN9], the pKd entry was “below the threshold” with APBA2_2, Q99767; 3.56 in the experiment with ARHGAP21, Q5T5U3; “below the threshold” with DFNB31_2, Q9P202; 4.18 with DLG1_2, Q12959; 3.62 with DLG2_2, Q15700; 4.16 in the experiment with DLG2_3, Q15700. Further, the negative logarithm of the Kd (pKd) result in the experiment with DLG3_1, Q92796 was “below the threshold”; in the experiment with HTRA1, Q92743, 4.38; in the experiment with IL16_3, Q14005, “below the threshold”; in the experiment with LIN7A, O14910 it was “below the threshold”; in the experiment with LRRC7, Q96NW7 it was 3.81; with MAGI2_5, Q86UL8, “below the threshold”. Also, the pKd result in the experiment with MAST1, Q9Y2H9 is “below the threshold”; with MPDZ_10, O75970 it was “below the threshold”; in the experiment with MPDZ_12, O75970, 3.57; with MPDZ_5, O75970, 4.06; in the experiment with NHERF3_1, Q5T2W1, 4.08; with NHERF3_4, Q5T2W1 it was “below the threshold”. The negative-log Kd (pKd) was 4.89 in the experiment with NOS1, P29475; “below the threshold” with PDZRN3_1, Q9UPQ7; “below the threshold” in the experiment with PICK1, Q9NRD5; 3.99 with PTPN3, P26045; 4.97 with TJP1_2, Q07157; “below the threshold” with TX1BP3, O14907.

Regarding TSQESEDTYL [TBC1D10A, Q9BXI6], the pKd result with APBA2_2, Q99767 is “below the threshold”; with ARHGAP21, Q5T5U3, 4.45; in the experiment with DFNB31_2, Q9P202, “below the threshold”; with DLG1_2, Q12959, “below the threshold”; in the experiment with DLG2_2, Q15700, “below the threshold”; with DLG2_3, Q15700 it was “below the threshold”. Also, the negative-log Kd (pKd) entry is “below the threshold” with DLG3_1, Q92796; 4.7 with HTRA1, Q92743; “below the threshold” in the experiment with IL16_3, Q14005; “below the threshold” with LIN7A, O14910; 3.85 with LRRC7, Q96NW7; “below the threshold” with MAGI2_5, Q86UL8. For the same molecule, the negative-log Kd (pKd) with MAST1, Q9Y2H9 is 4.71; with MPDZ_10, O75970, “below the threshold”; in the experiment with MPDZ_12, O75970 it was “below the threshold”; with MPDZ_5, O75970 it was “below the threshold”; with NHERF3_1, Q5T2W1, 5.69; in the experiment with NHERF3_4, Q5T2W1 it was 3.48. For the same molecule, the pKd entry was “below the threshold” in the experiment with NOS1, P29475; 3.48 with PDZRN3_1, Q9UPQ7; 4.11 with PICK1, Q9NRD5; 4.88 with PTPN3, P26045; “below the threshold” with TJP1_2, Q07157; “below the threshold” with TX1BP3, O14907.

As for PEYLGLDVPV [ERBB2, P04626], the pKd entry in the experiment with APBA2_2, Q99767 was “below the threshold”; in the experiment with ARHGAP21, Q5T5U3, 4.12; in the experiment with DFNB31_2, Q9P202, “below the threshold”; with DLG1_2, Q12959 it was “below the threshold”; in the experiment with DLG2_2, Q15700, “below the threshold”; with DLG2_3, Q15700, “below the threshold”. Besides, the negative-log Kd (pKd) entry in the experiment with DLG3_1, Q92796 was “below the threshold”; with HTRA1, Q92743, 3.59; with IL16_3, Q14005, “below the threshold”; in the experiment with LIN7A, O14910 it was “below the threshold”; with LRRC7, Q96NW7 it was “below the threshold”; with MAGI2_5, Q86UL8, “below the threshold”. Also, the pKd is 3.98 in the experiment with MAST1, Q9Y2H9; “below the threshold” in the experiment with MPDZ_10, O75970; “below the threshold” in the experiment with MPDZ_12, O75970; “below the threshold” in the experiment with MPDZ_5, O75970; “below the threshold” in the experiment with NHERF3_1, Q5T2W1; 3.59 with NHERF3_4, Q5T2W1. The negative-log Kd (pKd) was 3.9 with NOS1, P29475; 3.48 with PDZRN3_1, Q9UPQ7; 4.25 with PICK1, Q9NRD5; “below the threshold” in the experiment with PTPN3, P26045; 3.65 with TJP1_2, Q07157; 4.19 in the experiment with TX1BP3, O14907.
